Here are results for twelve molecules from patent CN110357963A (BEIJING ZHIREN MEIBO BIOTECHNOLOGY CO LTD, dated 2019).

The target in test [1] is T1, 重组人ST2-his (人ST2胞外区, C端His标签) (human (homo sapiens), UniProt Q01638 19-328).
T1 construct: Expressed in HEK293 cells; also called hST2-his; hST2-His; not shown: His tag at C-terminus
T1 sequence: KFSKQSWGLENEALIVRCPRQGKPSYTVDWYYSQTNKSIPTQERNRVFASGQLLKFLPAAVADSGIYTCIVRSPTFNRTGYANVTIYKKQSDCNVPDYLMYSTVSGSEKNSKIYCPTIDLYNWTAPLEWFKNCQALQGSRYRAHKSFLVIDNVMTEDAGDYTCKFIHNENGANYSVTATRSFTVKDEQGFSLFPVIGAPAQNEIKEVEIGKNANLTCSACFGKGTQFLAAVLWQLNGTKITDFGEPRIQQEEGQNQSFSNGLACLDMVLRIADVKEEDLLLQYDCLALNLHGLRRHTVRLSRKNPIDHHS
The experiment in a line: SPR Biacore X100 as in Example 3.4, antibody captured, hST2-his analyte. In general terms: Surface plasmon resonance follows binding to a sensor surface in real time, without labels.

A further test addresses T2, ST2L (IL1RL1) on cells (human, UniProt Q01638 19-556).
T2 sequence (looked up): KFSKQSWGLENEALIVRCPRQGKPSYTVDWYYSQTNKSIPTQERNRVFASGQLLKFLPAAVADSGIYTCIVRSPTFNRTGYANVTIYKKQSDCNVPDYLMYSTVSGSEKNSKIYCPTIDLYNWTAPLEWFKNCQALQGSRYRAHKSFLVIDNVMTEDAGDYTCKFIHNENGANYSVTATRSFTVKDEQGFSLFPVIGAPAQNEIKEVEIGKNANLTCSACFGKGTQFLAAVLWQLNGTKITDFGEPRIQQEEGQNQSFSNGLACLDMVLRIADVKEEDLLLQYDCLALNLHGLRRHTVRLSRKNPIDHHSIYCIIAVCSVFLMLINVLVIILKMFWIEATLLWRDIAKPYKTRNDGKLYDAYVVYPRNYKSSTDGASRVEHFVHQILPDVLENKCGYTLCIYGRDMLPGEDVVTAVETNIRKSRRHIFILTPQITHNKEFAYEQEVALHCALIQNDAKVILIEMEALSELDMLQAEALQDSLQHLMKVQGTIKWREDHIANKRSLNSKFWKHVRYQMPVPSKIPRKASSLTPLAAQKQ
The test can be described thus: cell-based or functional assay.

The target of test [2] is T1, 重组人ST2-his (人ST2胞外区, C端His标签). The experiment in a line: SPR Biacore X100 as in Example 3.4, antibody captured, hST2-his analyte. The source holds these as a separate data set.
The target of test [3] is T3, 小鼠ST2 (mST2-his) (mouse (mus musculus), UniProt P14719 27-332).
T3 construct: not shown: His tag at C-terminus
T3 sequence: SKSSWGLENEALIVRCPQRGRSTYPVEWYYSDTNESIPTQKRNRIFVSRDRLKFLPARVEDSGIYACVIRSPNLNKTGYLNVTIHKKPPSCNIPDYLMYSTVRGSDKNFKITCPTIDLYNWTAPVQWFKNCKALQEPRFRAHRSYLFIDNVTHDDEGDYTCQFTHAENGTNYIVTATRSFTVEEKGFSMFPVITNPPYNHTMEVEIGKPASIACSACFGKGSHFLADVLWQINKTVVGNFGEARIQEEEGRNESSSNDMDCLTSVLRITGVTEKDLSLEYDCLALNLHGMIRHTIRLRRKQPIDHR
The test can be described thus: ELISA, mST2-his coated at 1 µg/mL, HRP anti-human IgG detection.

In test [4] the target is T3, 小鼠ST2 (mST2-his). The experiment in a line: ELISA, mST2-his coated 1 µg/mL, HRP anti-human IgG. On the technique in general: An ELISA detects its analyte on a solid surface through an enzyme-linked reagent.
Test [5] concerns the target T1, 重组人ST2-his (人ST2胞外区, C端His标签). The experiment in a line: competition ELISA, hST2-his coated, competitor hIL33-mFc 0.5 µg/mL, antibody titrated.
The target is the same in test [6]. The experiment in a line: SPR Biacore X100, antibody captured by anti-human Fc, hST2-his analyte, 25 °C, 1:1 model.
Another test has as its target T4, 猕猴ST2 (mmST2-his) (rhesus macaque (Macaca mulatta), UniProt Q01638 19-328 (human entry)).
T4 construct: not shown: His tag at C-terminus
T4 chain: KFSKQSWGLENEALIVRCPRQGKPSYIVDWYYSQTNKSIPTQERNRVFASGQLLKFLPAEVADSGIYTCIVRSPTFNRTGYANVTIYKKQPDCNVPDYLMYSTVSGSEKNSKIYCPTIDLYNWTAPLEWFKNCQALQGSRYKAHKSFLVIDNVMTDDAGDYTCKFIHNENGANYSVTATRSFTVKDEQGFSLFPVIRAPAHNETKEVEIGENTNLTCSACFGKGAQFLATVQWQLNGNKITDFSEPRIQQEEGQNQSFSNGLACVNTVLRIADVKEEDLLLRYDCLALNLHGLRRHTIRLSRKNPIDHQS
The test can be described thus: ELISA, mmST2-his coated 1 µg/mL, HRP anti-human IgG.

Test [7] deals with T1, 重组人ST2-his (人ST2胞外区, C端His标签). The test can be described thus: phage display solid-phase panning on recombinant human ST2-his.

B1: S1A4VH+L2G2 (antibody, V domains shown)
VH: QVQLVQSGAEVKKPGASVKVSCKVSGYTLTELSIHWVRQAPGKGLEWMGGFGPEDGETIYAQKFQGRVTMTEDTSTDTAYMELSSLRSEDTAVYYCINEDSGGLFDFWGQGTTVTVSS
VL: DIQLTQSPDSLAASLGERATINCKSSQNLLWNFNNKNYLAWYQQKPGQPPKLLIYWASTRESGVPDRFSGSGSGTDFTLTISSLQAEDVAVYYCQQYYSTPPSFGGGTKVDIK
notes: Full antibody, heavy chain constant region IgG4 subtype
As usually defined, the Kd is the concentration at which binding is half-saturated. Consider B1, for which the affinity in [1], expressed as Kd, was 0.0794 nM.

B2: H5G10+L2G2 (antibody, IgG4, V domains shown)
VH: EVQLVQSGAEVKKPGASVKVSCKVSGYTLTELSIHWVRQAPGKGLEWMGGFGPEDGEAIYAQKVQGRVILSEDTATDTAYMELSSLRSEDTAVYYCTNEDSGGLFDYWGQGTLVTVSS
VL: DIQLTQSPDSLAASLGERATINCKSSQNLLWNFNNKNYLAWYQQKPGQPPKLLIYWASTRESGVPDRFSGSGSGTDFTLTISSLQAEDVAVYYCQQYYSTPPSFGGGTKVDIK
notes: Full antibody, IgG4 heavy constant region
Regarding B2, the “IC50 of inhibition of IFNγ secretion by PBMC co-stimulated with IL-33 and IL-12” value (shortened to “IC50 of inhibition of IFNγ secretion”) in the test with ST2L (IL1RL1) on cells is 0.0175 nM. In test [2], this molecule had a Kd of 0.0852 nM. Moreover, the binding result with 小鼠ST2 (mST2-his) [3] is given as “no binding”.

B3: S1A4-IgG4 (antibody, V domains shown)
VH: QVQLVQSGAEVKKPGASVKVSCKVSGYTLTELSIHWVRQAPGKGLEWMGGFGPEDGETIYAQKFQGRVTMTEDTSTDTAYMELSSLRSEDTAVYYCINEDSGGLFDFWGQGTTVTVSS
VL: not shown
notes: Full antibody; also called 抗人ST2单克隆抗体S1A4
Broadly, the IC50 is the concentration needed to halve the response being measured. As for B3, the binding result with 小鼠ST2 (mST2-his) [4] and in the test with 猕猴ST2 (mmST2-his) was “binds” in each case. In test [5], this molecule returned an IC50 of 4.15 nM. The Kd in [6] was 0.135 nM; in test [2], 0.139 nM; in test [1], 0.111 nM.

B4: S1A4VH+L1D1 (antibody, V domains shown)
VH: QVQLVQSGAEVKKPGASVKVSCKVSGYTLTELSIHWVRQAPGKGLEWMGGFGPEDGETIYAQKFQGRVTMTEDTSTDTAYMELSSLRSEDTAVYYCINEDSGGLFDFWGQGTTVTVSS
VL: DIQLTQSPDSLAVSLGERATINCKSSQSLLYSFNNKNYLAWYQQKPGQPPNLLIYWASTRESGVPDRFSASGSGTDFTLTISSLQAEDVAVYYCQQYYGVPQTFGQGTKVEIK
notes: as for B1
With B4, the dissociation constant (Kd) in [1] was 0.152 nM.

B5: GSK3772847-IgG4 (antibody, V domains shown)
VH: EVQLLESGGGLVQPGGSLRLSCAASGFTFSIYDMIWVRQAPGKGLEWVSSIRGEGGGTYYADSVKGRFTISRDNSKNTLYLQMNSLRAEDTAVYYCARDPWSTEGSFFVLDYWGQGTLVTVSS
VL: EIVLTQSPATLSLSPGERATLSCRASQSVDDDLAWYQQKPGQAPRLLIYDASNRATGIPARFSGSGSGTDFTLTISSLEPEDFAVYYCQQYITAPLTFGQGTKVEIK
notes: Positive control antibody made after US9382318B2/US9090694B2; also called 抗人ST2对照抗体GSK3772847
With B5, the “IC50 of inhibition of IFNγ secretion” value in the test with ST2L (IL1RL1) on cells was found to be 0.0157 nM. This molecule also came in with an IC50 in test [5] of 5.52 nM. In test [6], the equilibrium dissociation constant (Kd) turned out to be 0.109 nM.

B6: 全人源单链抗体S1A4 (scFv)
scFv: QVQLVQSGAEVKKPGASVKVSCKVSGYTLTELSIHWVRQAPGKGLEWMGGFGPEDGETIYAQKFQGRVTMTEDTSTDTAYMELSSLRSEDTAVYYCINEDSGGLFDFWGQGTTVTVSSGGGGSGGGGSGGGGSDIQLTQSPDSLAVSLGERATINCKSSQSVLYSSNNKNYLAWYQQKPGQPPKLLIYWASTRESGVPDRFSGSGSGTDFTLTISSLQAEDVAVYYCQQYYSTPWTFGQGTKLEIK
notes: also called S1A4 scFv
Regarding B6, the binding result in [7] is listed as “binds”.

B7: H6D6+L2G2 (antibody, IgG4, V domains shown)
VH: QMQLVQSGAEVKKPGSSVKVSCKASGGTFSSYAISWVRQAPGKGLEWMGGFDPEDGETIYAQKFQGRVTMTEDTSTDTAYMELSSLRSEDTAVYYCTTEDSSGLLDFWGQGTLVTVSS
VL: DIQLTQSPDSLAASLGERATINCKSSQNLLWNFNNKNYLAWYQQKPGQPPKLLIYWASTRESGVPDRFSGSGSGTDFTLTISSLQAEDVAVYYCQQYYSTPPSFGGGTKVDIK
notes: as for B2
On to B7, for which the binding result with 小鼠ST2 (mST2-his) [4] and in the test with 猕猴ST2 (mmST2-his) was “binds” each time. The Kd in test [2] worked out at 0.695 nM.

B8: H6D3+L2G2 (antibody, IgG4, V domains shown)
VH: QVQLVQSGAEVKKPGASVKVSCKVSGHTLTELSIHWVRQTPGKGLVWLGGFESEDGEAIYAQNFQGRVIMTEDTFTDTAYMELSSLRSEDTAVYYCTTEDSSGLIDYWGQGTLVTVSS
VL: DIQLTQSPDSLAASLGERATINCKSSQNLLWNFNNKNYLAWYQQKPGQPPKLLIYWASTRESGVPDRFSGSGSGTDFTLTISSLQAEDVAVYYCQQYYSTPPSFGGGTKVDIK
notes: as for B2
In the case of B8, the binding result with 小鼠ST2 (mST2-his) [4] and with 猕猴ST2 (mmST2-his) was “binds” throughout. In test [2], this molecule showed an equilibrium dissociation constant (Kd) of 0.0373 nM.

B9: MSTT1041A-IgG4 (antibody, V domains shown)
VH: EVQLVQSGAEVKKPGESLKISCKGSGYSFTNYWIGWVRQMPGKGLEWMGIIYPGNSDTRFSPSFQGQVTISADKSITTAYLQWSSLKASDTAMYYCARHGTSSDYYGLDVWGQGTTVTVSS
VL: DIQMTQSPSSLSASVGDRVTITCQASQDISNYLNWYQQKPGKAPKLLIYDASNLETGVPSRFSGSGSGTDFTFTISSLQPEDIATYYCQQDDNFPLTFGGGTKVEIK
notes: Positive control antibody made after US9382318B2/US9090694B2; also called 抗人ST2对照抗体MSTT1041A
Regarding B9, the “IC50 of inhibition of IFNγ secretion” value with ST2L (IL1RL1) on cells was 0.037 nM. For the same molecule, the IC50 in [5] turned out to be 3.79 nM. The same molecule displayed an equilibrium dissociation constant (Kd) in [6] of 0.24 nM.

B10: H5G3+L2G2 (antibody, IgG4, V domains shown)
VH: QVQLVQSGAEVKKPGASVKVSCKVFGYTLTELSMHWVRQAPGKGLEWMGSFDRGDGKTIYAQKFLGRVTMTEDTSTDTAYMELSSLRSEDTAVYYCTNEDSSGLFDFWGQGTLVTVSS
VL: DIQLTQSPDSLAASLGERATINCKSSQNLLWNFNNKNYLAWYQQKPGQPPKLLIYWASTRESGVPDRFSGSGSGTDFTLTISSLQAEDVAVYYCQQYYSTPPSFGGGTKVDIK
notes: as for B2
For B10, the binding result with 小鼠ST2 (mST2-his) [4] and with 猕猴ST2 (mmST2-his) was “binds” each time. Also, in test [2], binding was characterised by a dissociation constant (Kd) of 0.115 nM.

B11: H5G3+L1D1 (antibody, IgG4, V domains shown)
VH: QVQLVQSGAEVKKPGASVKVSCKVFGYTLTELSMHWVRQAPGKGLEWMGSFDRGDGKTIYAQKFLGRVTMTEDTSTDTAYMELSSLRSEDTAVYYCTNEDSSGLFDFWGQGTLVTVSS
VL: DIQLTQSPDSLAVSLGERATINCKSSQSLLYSFNNKNYLAWYQQKPGQPPNLLIYWASTRESGVPDRFSASGSGTDFTLTISSLQAEDVAVYYCQQYYGVPQTFGQGTKVEIK
notes: IgG4 heavy constant region
B11: the binding result in the test with 小鼠ST2 (mST2-his) [4] and with 猕猴ST2 (mmST2-his) was “binds” in each case. The “IC50 of inhibition of IFNγ secretion” value with ST2L (IL1RL1) on cells is 0.038 nM.

B12: H5E10+L2G2 (antibody, IgG4, V domains shown)
VH: EVQLVQSGAEVKKPGASVKVSCKVSGYTLTELSIHWVRQAPGKGLEWMGGFDPEDGETIYAQKFQGRITLTEDTSTDTAYMELSSLRSEDTAVYYCTNEDSSGLFDYWGQGTLVTVSS
VL: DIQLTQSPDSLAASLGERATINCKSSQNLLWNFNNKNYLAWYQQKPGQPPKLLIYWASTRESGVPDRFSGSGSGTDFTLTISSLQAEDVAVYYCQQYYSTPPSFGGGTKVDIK
notes: as for B2
For the molecule B12, the binding result with 小鼠ST2 (mST2-his) [4] and in the test with 猕猴ST2 (mmST2-his) was “binds” in each case. Also, the Kd in test [2] is 0.709 nM.
